# B1: OR4K15 (parent)
# chain: GUUAACGGUCAUAGGCCAUGGAAACUAGGAGCACCAUUUCGCUGCCAGUGAAGAAAUGAACAAAGAAAAUCUGGGCCAGGCAGGCAUCAAAAGAAAUAGUCUUGCGCUCAACCAGAAAGUCUGUAAUCAUUUUAAGGGUA
# Variants of: B1
# Assay: self-cleavage, relative activity (ratio to wild type); higher = more cleavage; in vitro, sequencing; the parent is a self-cleaving ribozyme
row,Variant,self-cleavage
1,A64U A117U,1.07
2,A66G A134C,1.71
3,U2A G44C,0.79
4,U9C U122C,1.15
5,U102C C113U,0.33
6,A52G A116G,0.91
7,G21C U108C,0.02
8,U9C A110G,0.15
9,A110G A129U,0.08
10,A33G A118U,0.47
11,A59G A114G,0.26
12,A36C U49C,1.28
13,G137C A140U,1.65
14,A54U A135U,2.01
15,A52G A62C,1.53
16,U72A U124A,0.1
17,G41A A94G,1.9
18,A47U A94G,1.22
19,U49A U108C,0.01
20,C61U A126G,0.55
21,C6U U19G,0.77
22,A62G U130G,1.06
23,A22G U49G,1.39
24,G74A A82G,0.26

row,Variant,self-cleavage
1,A54U U70C,0.53
2,A5G U72A,0.43
3,A118G A134U,1.03
4,G14A A89G,0.65
5,A89G A98U,2.15
6,C109G,0.02
7,C45G A55G,1.73
8,A62U A140G,0.67
9,A4U A24G,0.76
10,U37G U100C,1.67
11,A55G G106U,0.02
12,C112G U124C,0
13,G14C A118U,0.78
14,A4U A56G,0.98
15,U103A G138A,0.68
16,A27G U130C,0.63
17,U26C A118C,0.51
18,U39C A51U,2.29
19,U19A A111U,0.09
20,U19A A91C,1.85
21,A63U U103A,0.49
22,A69G U100C,2.43
23,U38C A114G,0.75
24,A47U A78G,0.17

row,Variant,self-cleavage
1,C10U G106C,0.03
2,A23G U97C,0.8
3,U57C C76U,0.13
4,G28A U39C,2.09
5,A27G U87C,1.02
6,U43C C85U,1.32
7,U120G,1.31
8,U2C A52C,1.25
9,A23G A116G,0.47
10,A30G U38A,0.72
11,U39A A91G,1.56
12,G8U A94G,1.98
13,A36U G48A,1.22
14,U3A U57C,1.14
15,A23U U108C,0.01
16,G15A A94G,1.73
17,A23U A140C,1.37
18,A33G C76U,0.12
19,U57C U103C,0.86
20,U100C A111U,0.18
21,U9A A140U,1.31
22,A64U A114U,0.02
23,U37C U108C,0.01
24,G93U G123A,0.77

row,Variant,self-cleavage
1,A51U U72C,0.23
2,A63C C81U,0.41
3,G75A G119A,0.17
4,A91G U122G,2.58
5,A11U A82G,0.63
6,A90G U122C,0.65
7,U9A U131C,0.4
8,A63G G83A,1.84
9,U122C U127C,0.25
10,A24G C81G,0.21
11,A91G A135U,1.25
12,G44A U122C,1.67
13,A78U A110G,0.05
14,A11U U72C,0.35
15,C17U A54G,1.02
16,G20A A117G,0.65
17,C109U U120C,0.15
18,A5G G7A,0.91
19,U103G G137U,0.05
20,G73A A94G,0.19
21,G41A U122C,1.67
22,A22U U120C,0.48
23,G93A A95G,2.26
24,A62U U87C,1.57

row,Variant,self-cleavage
1,A60G U122C,0.84
2,U39C A47C,1.63
3,A33U A129G,1.03
4,U19A A23G,1.28
5,A126U U131C,1.84
6,C16U A95G,1.21
7,U39A A47U,0.73
8,A62G A67C,1.96
9,G83A U102C,0.44
10,U12A A59G,1.26
11,G21U U108C,0.02
12,A13G U87C,1.5
13,A51G A60G,1.2
14,A89G A116U,0.31
15,U38C U131C,1.33
16,U70A,0.83
17,A62U C85U,1.31
18,U87C C101A,0.14
19,U19C A55C,1.89
20,U37C A78C,0.64
21,U72G U97G,0.3
22,A62G G84A,1.73
23,U72A A91U,0.24
24,U12C A116G,0.73

row,Variant,self-cleavage
1,U37C U103C,0.32
2,U2C A116G,0.6
3,A36U A94G,1.44
4,G1U A95G,0.56
5,G79U,0.06
6,A51G A135U,0.7
7,U19G A64G,1.49
8,A5U U38C,1.27
9,C32U A60G,1.38
10,G48A A92U,1.62
11,U3C U19C,1.88
12,G14U A118U,0.4
13,A33G A91G,0.29
14,A116G A134G,0.59
15,A47G U120A,1.21
16,A51G U108C,0.02
17,C17U A116G,0.47
18,U43C A126G,0.73
19,G115A C128U,0.06
20,U49C U120C,0.52
21,U3C A36G,1.39
22,G75A U103C,0.06
23,A78G A118G,0.29
24,A30G C34A,0.85

row,Variant,self-cleavage
1,A36G A134U,1.6
2,A78G U127C,0.22
3,U39A A129C,1.24
4,A30G G75C,0.19
5,C42G,1.62
6,A82U A94U,0.21
7,A92G U139A,2.12
8,A33U A68G,1.28
9,A64G G136U,2.02
10,A117U A118C,0.51
11,C16U A129C,1.3
12,A52G A86U,1.33
13,A82U U131C,0.24
14,G7U U12C,0.79
15,U43A A86U,1.7
16,A86G A140G,0.77
17,U43C U130C,0.47
18,U43C G136A,1.75
19,A23C A62G,0.57
20,G65U G138A,1.24
21,G21U U87C,1.55
22,A126G A129G,0.97
23,C16U A94G,0.94

# Source: the RNAGym collection of RNA variant scans (doi:10.7554/elife.90254)
